The text below walks through data of PMC8706816, “Hydrogen Sulfide Improves the Cold Stress Resistance through the CsARF5-CsDREB3 Module in Cucumber”.

This data set deals with T1, CsARF5-HIS (Cucumis sativus, UniProt A0A0A0LE69 1-948).
T1 sequence: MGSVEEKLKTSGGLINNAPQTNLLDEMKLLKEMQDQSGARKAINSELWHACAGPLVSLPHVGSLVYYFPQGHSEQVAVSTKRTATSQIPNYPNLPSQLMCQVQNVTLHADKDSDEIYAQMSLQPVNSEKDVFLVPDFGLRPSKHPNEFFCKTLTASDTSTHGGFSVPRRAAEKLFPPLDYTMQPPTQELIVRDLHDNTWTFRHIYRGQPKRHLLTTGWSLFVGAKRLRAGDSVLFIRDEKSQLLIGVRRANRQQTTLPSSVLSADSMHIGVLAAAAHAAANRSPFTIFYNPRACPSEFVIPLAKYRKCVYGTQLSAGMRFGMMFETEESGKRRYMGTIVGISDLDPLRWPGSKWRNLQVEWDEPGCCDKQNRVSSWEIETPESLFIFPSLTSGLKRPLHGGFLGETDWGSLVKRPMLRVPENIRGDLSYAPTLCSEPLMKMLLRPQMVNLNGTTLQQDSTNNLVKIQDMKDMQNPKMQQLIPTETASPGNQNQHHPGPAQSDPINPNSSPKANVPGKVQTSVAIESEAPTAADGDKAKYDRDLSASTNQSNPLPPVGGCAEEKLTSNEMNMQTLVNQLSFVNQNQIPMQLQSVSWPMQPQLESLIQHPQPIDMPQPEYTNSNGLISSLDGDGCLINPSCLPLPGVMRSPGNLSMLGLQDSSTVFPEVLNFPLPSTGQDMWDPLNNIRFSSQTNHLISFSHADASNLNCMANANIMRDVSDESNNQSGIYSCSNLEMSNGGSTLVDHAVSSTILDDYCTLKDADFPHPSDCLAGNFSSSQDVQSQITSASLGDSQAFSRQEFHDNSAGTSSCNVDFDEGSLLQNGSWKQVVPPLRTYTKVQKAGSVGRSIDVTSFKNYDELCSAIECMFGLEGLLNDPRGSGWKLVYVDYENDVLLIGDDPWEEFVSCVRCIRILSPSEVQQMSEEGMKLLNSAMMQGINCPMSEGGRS
Description: EMSA; EMSA: protein and probe incubated at 24 °C for 30 min, nondenaturing acrylamide gel; buffer, salt and pH not stated. The conditions noted are these: protein: recombinant; tags: His; label: biotin.

B1: CsDREB3 promoter probe (dsDNA)
DNA 1: ATCGGGGTAAGAGACATTAAGAAACA
DNA 2: TGTTTCTTAATGTCTCTTACCCCGAT
Take B1: the binding result is on record as “binds”.
